For the data set, the target named is CDK4 (UniProt P11802).
CDK4, sequence (P11802 2-303): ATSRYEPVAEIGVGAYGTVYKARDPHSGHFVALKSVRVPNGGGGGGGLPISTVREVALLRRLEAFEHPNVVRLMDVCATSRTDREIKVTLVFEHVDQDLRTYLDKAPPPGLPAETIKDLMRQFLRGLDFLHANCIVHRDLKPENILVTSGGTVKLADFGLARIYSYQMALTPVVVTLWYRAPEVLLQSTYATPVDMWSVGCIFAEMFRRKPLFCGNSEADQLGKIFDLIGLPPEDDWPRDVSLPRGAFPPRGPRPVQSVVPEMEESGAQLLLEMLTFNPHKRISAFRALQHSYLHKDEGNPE

Regarding JNK, the “phosphorylation of CDK4 at Thr-172 (immunoblot)” value is “JNK phosphorylated T172 of CDK4 2 hours after serum stimulation”.

For the origin of these results see patent US20210330742.
